{"source": "the RNAGym collection of RNA variant scans (doi:10.1073/pnas.2313332121)", "parents": {"B1": {"name": "TPR t1 (parent)", "chain": "GACCAAUCUGCCCUCAGAGCUCGAGAACAUCUUCGGAUGCAGAGGAGGCAGGCUUCGGUGGCGCGAUAGCGCCAACGUCCUCAACCUCCAAUGCAUCCCACCACAUGAUGAUGCCUGAAGAGCCUUGGUUUUUUG"}}, "data": [{"variants_of": "B1", "test": "polymerase ribozyme fitness, log enrichment relative to wild type (log ratio); higher = more active; in vitro selection for triplet polymerase activity", "in_short": "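Mutant libraries for each subunit of a heterodimeric triplet polymerase ribozyme were made by PCR and then transcribed. Each library underwent one round of in vitro selection in triplicate: annealing with a biotinylated primer, the partner subunit and triplets, frozen incubation at −7 °C, gel excision of extended constructs, streptavidin-bead capture and RT-PCR. Input and output libraries were Illumina-sequenced, and only genotypes with ≥10 input reads and ≥1 read per output were kept. Fitness is the logarithm, base 2, of genotype enrichment over wild-type enrichment, computed from inverse-variance-weighted replicate averages.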", "values": [{"variant": "GACCAAUCAGCCCUCAGAGCUCGAGAACAUCUUCGGAUGCAGAGGAGGCAGGCUUCGGUGGCGCGAUAGCGCCAACGUCCUCAAACUCCAAUGCAUUCCACCACAUGAUGAUGCCUCAAGAGCAUUGGUUUUUUG", "note": "[U9A C85A C97U G117C C124A]", "polymerase ribozyme fitness (log ratio)": -3.01}, {"variant": "GACCAAUCAGCCCUCAGAGCUCGAGAACAUCUUCGGAUGCAGAGGAGGCAGGCUUCGGUGGCGCGAUAGCGCCAACGUACUCAACCUCCAAUUCAUCCCAACACAUGAUGAUGCCUGAAGAGCCUUGGUUUUUUG", "note": "[U9A C79A G93U C101A]", "polymerase ribozyme fitness (log ratio)": -2.59}, {"variant": "GACCAAUCAGCCCUCAGAGCUCGAGAACAUCUUCGGAUGCAGAGGAGGCAGGCUUCGGUGGGGCGAUAGCGCCAACGUGCUCAACCUCCAAUGCAUCCCACCACAUGAUGAUGCCUGAAGAGCCUUGGUUUUUUG", "note": "[U9A C62G C79G]", "polymerase ribozyme fitness (log ratio)": -4.02}, {"variant": "GACCAAUCAGCCCUCAGAGCUCGAGAACAUCUUCGGAUGCAGAGGAGGCAGGUUUCGGUGGCGCGAUAGCGUCAACGUCCUCAACCUCCAAAGCAUCCCACCACAUGAUGAUGCCUGAAGAGCCUUAGUUUUUUG", "note": "[U9A C53U C72U U92A G127A]", "polymerase ribozyme fitness (log ratio)": -3.85}, {"variant": "GACCAAUCAGCCCUCAGAGCUCGAGAACAUCUUCGGAUGCAGAGGAGGCAGGCUUCGGUGGCGCGAUAGCGCCAACGUCCUCAACCUCCACAGCAUCCCACCAUAUGAUGAUGCCUGAAGAGCCUUGGUUUUUUG", "note": "[U9A A91C U92A C104U]", "polymerase ribozyme fitness (log ratio)": -2.18}, {"variant": "GACCAAUCAGCCCUCAGAGCUCGAGAACAUCUUCGGAUGCAGAGGAGGAAGGCUUCGGUGGCGCGAUAGCGACAACGUCCUCAACCUCCAAUGCAUCCCUCCACAUGAUGAUGCCUGAAGAGCCUUGGUUUUUUG", "note": "[U9A C49A C72A A100U]", "polymerase ribozyme fitness (log ratio)": -0.384}, {"variant": "GACCAAUCAGCCCUCAGAGCUCGAGAACAUCUUCGGAUGCAGAGGAGGCAGGCUUCGGUGGCGCGAUAGCGCCAACGUCCUCAACCUCCAAUGCAUGCCACCACGUGAUGAUGCUUAAAGAGCCUUGGUUUUUUG", "note": "[U9A C97G A105G C115U G117A]", "polymerase ribozyme fitness (log ratio)": -7.76}, {"variant": "GACCAAUCAGCCCUCAGAGCUCGAGAACAUCUUCGGAUGCAGAGGAGGGAGGCUUCGGUGGCGCGAUAGCGCCAACGUCCUCAACCUCCAAUCCAUCCCACCACAUGAUGAUGCCUGAAAAGCCUUGGUUAUUUG", "note": "[U9A C49G G93C G120A U131A]", "polymerase ribozyme fitness (log ratio)": 0.443}, {"variant": "GACCAAUCAGCUCUAAGAGCUCGAGAACAUCUUCGGAUGCAGAGGAGGCAGGGCUCGGUGGCGCGAUAGCGCCAACGUCCUCAACCUCCAAUGCAUCCCACCACAGGAUGAUGCCUGAAGAGCCUUGGUUUUUUG", "note": "[U9A C12U C15A C53G U54C U106G]", "polymerase ribozyme fitness (log ratio)": -3.06}, {"variant": "GACCAAUCAGCACUCAGAGCUCGAGAACAUCUUCGGAUGCAUAGGGGGCAGGGUUCGGUGGCGCGAUAGUGCCAACGUCCUCAACCUCCAAUGCAUCCCACCACAUGAUGAUGCCUGAAGAGCCUUGGUUUAUUG", "note": "[U9A C12A G42U A46G C53G C70U U132A]", "polymerase ribozyme fitness (log ratio)": -2.02}, {"variant": "GACCAAUCAGCCCUCAGAGCUCGAGAACAUCUUAGGAUGCAGAGGAGGCAAGCUUCGGUGGCGCGAUAGUGCCAACGUCCUCAACCUCCAAUGCAUCCCACCACAUGAUGAUGCCUGAAGCGCCUUGGUUUUUUG", "note": "[U9A C34A G51A C70U A121C]", "polymerase ribozyme fitness (log ratio)": -6.25}, {"variant": "GACCAAUCAGCACUCCGAGCUCGAGUACAUCUUCGGAUGCAGAGGAUGCAGGCUUCGGUGGCGCGAUAGCGCCAACGUCCUCAACCUCCAAUGCAUCCCACCACAUGAUGAUGCCUGAAGAGCCUUGGUUUUUUG", "note": "[U9A C12A A16C A26U G47U]", "polymerase ribozyme fitness (log ratio)": -5.44}, {"variant": "GACCAAUCAGACCUCAGAGCUCGAGAACAUCUUCGGAUGCAUAGGAGGCAGGCUUCGGUGUCGCGAUAGCGCCAACGUCCUCAACCUCCAAUGCAUCCCACCACAUGAUGAUGCCUGAAGAGCCUUGGUUUUUUG", "note": "[U9A C11A G42U G61U]", "polymerase ribozyme fitness (log ratio)": -1.6}, {"variant": "GACCAAUCAGCCCUCAGAGCUCGAGAACAUCUUCGGAUGCAGAGGAGGCCGGCUUCGGUGGCGCGAUAGCGCCAACGUCCUCAACCUCCAGUGCAUCCCACCACACGAUGAUGCCUGAAGAGCCUUGGUUUUUUG", "note": "[U9A A50C A91G U106C]", "polymerase ribozyme fitness (log ratio)": -1.11}, {"variant": "GACCAAUCAGCCCUCAGAGCUCGAGAACAUCUUCGGAUGCAGAGGAGGCAGGCUUCGGUGGCGCGAUAGCGCAAACGUCCUCAACCUCCAAUGCAUCCCACCAUAUGAUGAUGCCUGAAGAGCCUUGGUGUUUUC", "note": "[U9A C73A C104U U130G G135C]", "polymerase ribozyme fitness (log ratio)": 0.682}, {"variant": "GACCAAUCAGCCCUAAGAGCUCGAGAACAUCUUCGGAUGCAGAGCAGGCAGGCUUCGGUGGCGCGAUAGCGCCAACGUCCUCAACCUCCAAUGCAUCCCACCACAUGGUGAUGCCUGAAGAGCCUUGGUUUUUUG", "note": "[U9A C15A G45C A108G]", "polymerase ribozyme fitness (log ratio)": -4.55}, {"variant": "GACCAAUCAGCUCUCAGAGCUCGAGAACAUCUUCGGGUGCAGAGGAGGCAGGCUUCGGUGACGCGAUAGCGCCAACGUCCUCAACCUCCAAUGCAUCCCACCACAUGAUGAUGCCUGAAGAGCCUUGGUUUUUUG", "note": "[U9A C12U A37G G61A]", "polymerase ribozyme fitness (log ratio)": 0.106}, {"variant": "GACCAAUCAGCCCUCAGAGCUCGAGAACAUCUUCGGAUGCAGAGGAGGCAGGCUUCGGUGGCGCGAUAGCGCCAACGUCCUCAACCUCCAAUGCAUCCAACCACAUGAUGAUGCCUGAAGAGCCUUGGUUUUUUG", "note": "[U9A C99A]", "polymerase ribozyme fitness (log ratio)": -6.7}, {"variant": "GACCAAUCAGCCCUCAGACCUCGAGAACAUCUUCGGAUGCUGAGGAGGCAGGCUUCGGUGGCGCGAUAGCGCCAACGUCCUCAACCUCCAAUGCAUCCCACCACAUGAUGAUGCCUGAAGAGCCUUGGUUUUUUG", "note": "[U9A G19C A41U]", "polymerase ribozyme fitness (log ratio)": -1.63}, {"variant": "GACCAAUCAGCCCUCAGAGGUCGAGAACAUCUUCGGAUGCAGAGGAGGCAGGCUUCGGUGGCGCGAUAGCGCCAACGUCCUCAACCUCCAAUGCAUCCCACCACAUGAUGAUGCCUGAAGAGCCUUGGUUUUUUG", "note": "[U9A C20G]", "polymerase ribozyme fitness (log ratio)": -2.47}, {"variant": "GACCAAUCAGCCCUCAGAGCUCGAGAACAUCUUCGGAUGCAGAGGAGGCAGGCUUGGGUGGCGCGAUAGCGCCAACGUCCUCAACCUCCAAUGCAUCCCACCACAUGAUGAUGCCUGAAGAGCCUUGGUUUUUUG", "note": "[U9A C56G]", "polymerase ribozyme fitness (log ratio)": -0.125}]}]}
